Laboratory results published in US20210277147A1 (SINO SWED TONGKANG BIO TECH SHENZHEN, published 2021).

Assays:
[1] = target: T1, recombinant human thymidine kinase 1 (hTK1) protein (human, UniProt P04183 1-234, limits assumed); experiment: indirect ELISA on coated hTK1, anti-full-length IgY biotin detection
T1 construct: ELISA coating antigen at 0.5 ug/ml, 100 ul per well (50 ng/well); also called recombinant hTK1 antigen
T1 sequence (looked up): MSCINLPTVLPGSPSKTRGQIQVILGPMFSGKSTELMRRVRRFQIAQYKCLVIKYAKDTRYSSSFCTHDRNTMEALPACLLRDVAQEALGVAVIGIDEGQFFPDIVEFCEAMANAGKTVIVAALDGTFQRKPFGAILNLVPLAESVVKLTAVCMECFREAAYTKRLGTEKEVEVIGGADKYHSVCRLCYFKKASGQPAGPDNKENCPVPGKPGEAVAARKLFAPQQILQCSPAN
Procedure: (§1) The recombinant IgY scFv antibody contains not only the hypervariable region that binds to hTK1, but also the highly conserved framework region (FR). In this embodiment, the HA 9-peptide tag of human influenza hemagglutinin was added. Therefore, when detecting recombinant single-chain antibodies by indirect ELISA, biotin-labeled anti-full-length IgY secondary antibody and horseradish peroxidase-labeled anti-human influenza hemagglutinin HA 9-peptide monoclonal antibodies were used as labeled antibodies, to detect recombinant anti-hTK1 single-chain antibody expressed in CHO cells. The supernatant of the transfected cells was collected and the expression level of recombinant scFv antibody was detected by ELISA experiment. The specific method is as follows:
(§2) The OD value of the CHO cell supernatant transfected with the scFv antibody gene is 6.6 times that of the CHO cell supernatant not transfected, and the ratio of the recombinant hTK1 antigen to the negative antigen control is 6.9.

[2] = target: T1, recombinant human thymidine kinase 1 …; experiment: indirect ELISA on coated hTK1, HRP-labeled anti-HA monoclonal antibody detection
Procedure: as §1, §2

[3] = target: T1, recombinant human thymidine kinase 1 …; experiment: indirect ELISA, hTK1-coated wells against coating-solution wells, anti-full-length IgY biotin detection
Procedure: as §1, §2

[4] = target: T1, recombinant human thymidine kinase 1 …; experiment: indirect ELISA, hTK1-coated wells against coating-solution wells, HRP-labeled anti-HA monoclonal antibody detection
Procedure: as §1, §2

OD ratio to the CHO cell supernatant not transfected [1]: 6.6 fold
OD ratio to the untransfected CHO cell supernatant [2]: 2.6 fold
ratio of the recombinant hTK1 antigen to the negative antigen control [3]: 6.9 ratio
ratio of the recombinant hTK1 antigen to the negative antigen control [4]: 0.287 ratio
B1: recombinant anti-hTK1 chicken IgY single-chain variable fragment (scFv) antibody expressed in CHO cells (scFv)
scFv: MAAVTLDESGGGLQTPGGALSLVCKGSGFTFSSDAMGWMRQAPGKGLEFVARINSAGSYTDYGSAVDGRATISRDNGQSTVRLQLNNLRAEDTSTYFCAKSPGGFSCAYGLCWDAAGSIDAWGHGTEVIVSSGGGSGGGGSGGGGSGGGSALTQPSSVSANLGGTVKITCSGGANYYGWFQQKTPGSAPVSLIYESTKRPSNIPSRFSGSKSGSTGTLTITGVRADDEAVYYCGTYDSSTHTSIFGAGTTLYPYDVPDYA
notes: Tested as unpurified supernatant of transiently transfected CHO cells; also called recombinant IgY scFv antibody; recombinant anti-hTK1 single-chain antibody
